Data on 9 molecules can be found in US20250263490A1 (VIB VZW, published 2025).

Numbering of substitutions follows the chain as printed. Read-outs that look alike come from different tables or passages of the source.

The target in experiment [1] is T1, recombinant human domain 1-3His6 of the cation-independent mannose-6-phosphate receptor (human, UniProt P11717 41-467).
T1 construct: Biotinylated (NHS-PEG4-biotin) for BLI; Glycosylated; also called hDom1-3His6; hCI-M6PRD1-D3
Put plainly: in-tandem competitive BLI, biotinylated hDom1-3His6 on SA sensors, purified VHH at 400 nM.

Experiment [2] addresses T1, recombinant human domain 1-3His6 of the …. Put plainly: ELISA on coated antigen (100 ng), anti-VHH-HRP, A450. As to the method:
(§1) To determine the effect of site-directed mutations, an ELISA was performed. To this end, 100 ng of each successfully purified mutant was coated per well on Nunc Maxisorp plates in 50 mM MES, 150 mM NaCl, pH 6.5 buffer overnight at 4° C. […] Coating-only controls were included for background correction. […] Reactions were stopped after five minutes using a 2N H₂SO₄ solution and plates were read at 450 nm, with a 655 nm background correction. Data were analyzed using the GraphPad Prism 9 software.
A general note: In an ELISA, binding on a coated surface is turned into a signal by an enzyme label.

Experiment [3] has the same target. The experiment is described as above. As to the method: as §1
The source holds these as a separate data set.

For experiment [4] the target is unchanged. Put plainly: BLI exp 1, dissoc pH 5. As to the method:
(§2) For each of the 11 anti-CI-M6PR VHHs, a biolayer interferometry (BLI) experiment was performed in which the hDom₁₋₃His₆ was biotinylated and coupled to streptavidin biosensor tips. Afterwards, the tips were incubated with serially diluted VHHs during the association phase and dissociation was performed at pH 7.4. Similarly, dissociation was performed at pH 7.0, pH 6.0 and pH 5.0 as well after regeneration of the biosensor tips. […] The anti-CI-M6PR antibody (clone 2G11) and GBP were used as positive and negative controls, respectively.
(§3) Analysis of the binding kinetics was performed using an Octet Red96 (FortéBio) device with Streptavidin SA Biosensor tips (VWR 733-2145). Therefore, 1 mL of human domain₁₋₃His₆ (0.5 mg/mL in 50 mM MES, 150 mM NaCl, pH 6.5) was incubated at room temperature for 30 minutes with EZ-Link™ NHS-PEG4-Biotin (1 mg) (Thermo Fischer A39259) and NaHCO₃ (100 mM). Biotinylated human domain₁₋₃His₆ was purified using a Zeba spin desalting Column™ (7K MWCO, 2 mL, Thermo Fischer 89890) and 1 μg/mL was used for immobilization on the Streptavidin SA Biosensor tips. The loaded tips were dipped into a particular anti-CI-M6PR VHH solution, serially diluted in kinetics buffer (0.2M NaH₂PO₄, 0.1M Na⁺ citrate, 0.01% BSA, 0.002% Tween20, pH 7.4). This was followed by dissociation of the particular anti-CI-M6PR VHH in kinetics buffer of pH 7.4, followed by regeneration in Glycine (10 mM, pH 3) and neutralisation. Same cycle was repeated but the dissociation was performed at pH 7.0, 6.0, 5.0, 4.5 and 4.0. A reference well and reference sensors were subtracted from ligand sensors afterwards and Savitsky-Golay filtering was applied on the data. Fitting of the data was performed using a 1:1 model, grouped per pH of dissociation.

The target is the same in experiment [5]. Put plainly: BLI exp 1, dissoc pH 6. As to the method: as §2, §3
Experiment [6] shares this target. Put plainly: BLI exp 1, dissoc pH 7. The procedure:
as §2, §3

For experiment [7] the target is unchanged. Put plainly: BLI exp 2, dissoc pH 5. As to the method: as §2
(§4) Analysis of the binding kinetics was performed using an Octet Red96 (FortéBio) device with Streptavidin SA Biosensor tips (VWR, 733-2145). To this end, 1 mL of hCI-M6PR_D1-D3 (0.5 mg/mL in 50 mM MES, 150 mM NaCl, pH 6.5) was incubated at room temperature for 30 minutes with a two-fold molar excesses of EZ-Link™ NHS-PEG₄-Biotin (Thermo Fischer, A39259) and NaHCO₃ (100 mM, pH 8.3). Biotinylated hCIMPR_D1-D3 was purified using a Zeba spin desalting column (Thermo Fischer, 89890) and protein concentration was calculated by measuring the absorbance at 280 nm (extinction coefficient 50320 M¹ cm⁻¹). Two-fold biotin-labelled antigen was loaded on the tips (2.5 μg/mL) and subsequently dipped into a particular anti-CI-M6PR VHH-containing solution (ranging from 0-100 nM). Serial VHH dilutions were made in kinetics buffer (0.2 M Na₂HPO₄, 0.1 M Na⁺ citrate, 0.01% BSA, 0.002% Tween20, pH 7.4). After association (100 sec), dissociation was conducted (500 sec) for each anti-CI-M6PR VHH in the kinetics buffer, followed by biosensor regeneration in glycine (10 mM, pH 3) and neutralisation. The same cycle was repeated with dissociation performed in kinetics buffer of pH 7.0, 6.5, 6.0, 5.5, and 5.0.
(§5) A reference well and reference sensors were subtracted from ligand sensors afterwards and Savitsky-Golay filtering was applied on the data. Fitting of the data was performed using a 1:1 model, grouped per dissociation pH.

Experiment [8] shares this target. Put plainly: BLI exp 2, dissoc pH 6. As to the method:
as §2, §4, §5

Experiment [9] shares this target. Put plainly: BLI exp 2, dissoc pH 7.
Experiment [10] has the same target. Put plainly: BLI exp 1, dissoc pH 7.4. As to the method: as §2, §3
For experiment [11] the target is unchanged. Put plainly: BLI at pH 7.4, 1st of 2 repeats. As to the method:
as §2, §3

Experiment [12] has the same target. Put plainly: ELISA on coated antigen, 1st of 2 repeats. The procedure:
(§6) FIGS. 4A-4B. Affinity of anti-CI-M6PR VHHs for recombinant human CI-M6PR Domain 1-3His₆ determined by ELISA. A & B. Measurements for each of the 11 anti-CI-M6PR VHHs in serial dilution binding to the coated human CI-M6PR Domain 1-3His₆ antigen. Detection was performed using an anti-VHH antibody coupled to HRP, and measured as the absorbance of the TMB substrate at 450 nm, correlating to the amount of bound VHH as plotted at the Y-axis. The Log₁₀ concentrations of the serially diluted VHHs were plotted at the X-axis. […] A & B represent replicates but using a different concentration of human CI-M6PR Domain 1-3His₆ (in (FIG. 4A): 0-0.75 μM and in (FIG. 4B): 0-1 μM).
(§7) We evaluated the affinity of the VHHs against the hDom₁₋₃His₆ using ELISA. Coated hDom₁₋₃His₆ was incubated with serially diluted VHH that was afterwards detected using an anti-VHH antibody, coupled to HRP.

For experiment [13] the target is unchanged. Put plainly: ELISA on coated antigen, 2nd of 2 repeats. The procedure: as §6, §7
Experiment [14] concerns the target T2, recombinant mouse domain 1-3His6 of CI-M6PR (mouse, UniProt Q07113 36-418).
T2 construct: Genbank NM_010515.2); Range includes the signal peptide; also called mDom1-3His6; mCI-M6PRD1-D3
Put plainly: ELISA: coated mouse CI-M6PR Domain 1-3His6, serially diluted VHH, anti-VHH-HRP, TMB, Abs 450 nm; sigmoidal regression [table at the right]. The procedure:
FIGS. 5A-5B. Affinity of anti-CI-M6PR VHHs for recombinant mouse CI-M6PR Domain 1-3His₆ determined by ELISA. (FIG. 5A) Measurement for each of the 11 anti-CI-M6PR VHHs in serial dilution binding to the coated mouse antigen. Detection was performed using an anti-VHH antibody coupled to HRP, and measured as the absorbance of the TMB substrate at 450 nm, correlating to the amount of bound VHH as plotted at the Y-axis. The Log₁₀ concentrations of the serially diluted VHHs were plotted at the X-axis.
To evaluate the cross-reactivity of the anti-CI-M6PR nanobodies between the human and mouse CI-M6PR domain 1-3His₆ antigen, ELISA was performed with the eleven serially diluted anti-CI-M6PR nanobodies. […] By performing sigmoidal regression on the derived absorbance curves, half-maximal effective concentration (EC₅₀) values of each VHH were acquired, representing the required concentration to occupy 50% of the coated antigen. As a negative control, GBP was included in the assay.

T2 sequence (Q07113 other isoform, or with tags, fused parts or gaps): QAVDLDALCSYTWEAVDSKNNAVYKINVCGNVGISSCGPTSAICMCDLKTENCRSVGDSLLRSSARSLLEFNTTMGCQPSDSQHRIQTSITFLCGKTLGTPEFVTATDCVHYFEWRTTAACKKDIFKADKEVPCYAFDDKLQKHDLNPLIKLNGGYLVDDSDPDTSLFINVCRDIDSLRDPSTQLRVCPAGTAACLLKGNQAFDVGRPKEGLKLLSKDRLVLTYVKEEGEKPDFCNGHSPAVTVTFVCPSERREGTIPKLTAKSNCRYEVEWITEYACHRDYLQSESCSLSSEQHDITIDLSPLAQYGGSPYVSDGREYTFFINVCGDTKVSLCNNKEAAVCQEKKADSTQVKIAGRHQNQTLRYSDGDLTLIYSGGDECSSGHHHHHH

B1: humanized VHH7 variant VHH7 h3 (VHH)
VHH: DVQLVESGGGLVQPGGSLRLSCAASGIIFSDNRMDWYRQAPGKQREWVATLASYGWKTYADSVKGRFTISRDNTKNTVYLQMNSLRPEDTAVYYCKASSPVLNDIWGQGTLVTVSS
notes: made in E. coli
On to B1, for which the binding result in experiment [1] was “binds”.

B2: humanized VHH7 variant VHH7hWN (VHH)
VHH: B1 VHH with T74A
notes: His6-tagged, made in HEK293S
With B2, the half-maximal effective concentration (EC50 (read off the curve)) in experiment [2] and in experiment [3] was approximately 0.5 nM each time.

B3: humanized VHH7 variant VHH7 h2 (VHH)
VHH: B1 VHH with T74S
notes: made in E. coli
As for B3, the binding result in experiment [1] is reported as “binds”.

B4: humanized VHH7 variant VHH7 h1 (VHH)
VHH: B1 VHH with D1E, T74S
notes: made in E. coli
In the case of B4, the binding result in experiment [1] is “binds”.

B5: humanized VHH8 variant VHH8 h2 (VHH)
VHH: DVQLVESGGGLVQPGGSLRLSCAASGRTFNTYNWGWFRQAPGKEREFVAAIRWSSSKTSYADSVKGRFTISRDNSKNTVYLQMNSLRPEDTAVYYCAASIVDFTTNPSHFGSWGQGTLVTVSS
notes: made in E. coli
As for B5, the binding result in experiment [1] is “binds”.

B6: humanized VHH8 variant VHH8 h1 (VHH)
VHH: B5 VHH with D1E
notes: made in E. coli
Take B6: the binding result in experiment [1] was “binds”.

B7: humanized VHH8 variant VHH8 h3 (VHH)
VHH: B5 VHH with P14A
notes: made in E. coli
In the case of B7, the binding result in experiment [1] is listed as “binds”.

B8: humanized VHH8 variant VHH8hWN (VHH)
VHH: B5 VHH with S75A, V79I
notes: His6-tagged, made in HEK293S
On to B8, for which the “EC50 (read off the curve)” value in experiment [2] and in experiment [3] was approximately 3 nM in each case.

B9: anti-CI-M6PR VHH2 (VHH)
VHH: QVQLQESGGGLVQPGGSLRLSCVFSGRTFMSYDVGWFRQAPGKERELLSSITSSSSSPYYAESVKGRFAVSRDGAKKTVYLRMNSLEPEDTAVYYCAARENWRNDWQYWGQTQVTVSS
notes: His6-tagged; made in Pichia pastoris
Turning to B9, the Kd in experiment [4] stood at 10 nM; in [5], 5.96 nM; in experiment [6], 24.2 nM; in experiment [10], 5.3 nM; in experiment [11] it was 5.3 nM. In addition, the koff in experiment [4] turned out to be 0.00746 s⁻¹; in [5], 0.00513 s⁻¹; in experiment [6], 0.0161 s⁻¹; in experiment [7], 0.074 s⁻¹; in experiment [8], 0.0748 s⁻¹; in [9], 0.0136 s⁻¹. The dissociation rate constant (koff) in experiment [10] and in experiment [11] was 0.0036 s⁻¹ throughout. Moreover, the association rate constant (kon) in experiment [4] came to 745000 M⁻¹ s⁻¹; in [5], 862000 M⁻¹ s⁻¹; in experiment [6], 665000 M⁻¹ s⁻¹; in experiment [7], 745000 M⁻¹ s⁻¹; in experiment [8], 3.76e+06 M⁻¹ s⁻¹; in experiment [9], 1.56e+06 M⁻¹ s⁻¹. Moreover, the kon in experiment [10] and in [11] was 679000 M⁻¹ s⁻¹ in each case. The EC50 in experiment [12] was determined as 0.0608 nM; in [13], 0.177 nM; in [14], 104 nM.

The term EC50 (read off the curve) denotes the concentration giving half of the maximal effect. Usually Kd stands for the equilibrium constant for the complex coming apart. The koff is a measure of how fast the partners let go of each other. Broadly, the kon is a measure of how fast the partners come together. The term EC50 denotes the concentration giving half of the maximal effect.
